{"source": "patent US20240254220A1", "about": "“COMBINED THERAPY USING ANTI-CD300C ANTIBODY” (CentricsBio, Inc., priority 2021, published 2024)", "molecules": {"B1": {"name": "CL8: anti-CD300c monoclonal antibody, VH3VL1 phage library, VH SEQ ID 331, VL SEQ ID 332 (antibody, V domains shown)", "VH": "EVQLLESGGGLVQPGGSLRLSCAASGFTFSSYAMSWVRQAPGKGLEWVSAISGSGGSTYYADSVKGRFTISRNNSKNTLYLQMNSLRAEDTAVYYCARSGRYADLTSGGQGTLVTVSS", "VL": "QSVLTQPPSASGTPGQRVTISCSGSNSNIGNNYVSWYQQLPDTPPKLLIYDNNKRPSGVPDRFSGSKSGTSASLAISGLRSEDEADYYCSSYTSSSTVMFGGGTKLTVL", "modifications": "CL8 Heavy Chain Variable Region; CL8 Light Chain Variable Region"}}, "target": "T1, CD300c antigen (Homo sapiens, UniProt Q08708)", "T1 construct": "purchased Sino Biological 11832-H08H", "T1 sequence (Q08708 21-183)": "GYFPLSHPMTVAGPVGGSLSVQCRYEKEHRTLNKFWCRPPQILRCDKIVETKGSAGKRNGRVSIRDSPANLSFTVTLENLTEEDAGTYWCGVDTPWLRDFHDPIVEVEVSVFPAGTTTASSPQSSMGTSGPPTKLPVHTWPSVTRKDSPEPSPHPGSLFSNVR", "assay": "Binding ELISA of anti-CD300c monoclonal antibodies to CD300c antigen", "settings": "CD300c antigen coated at 8 μg/mL, absorbance 450 nm", "procedure": "In order to identify the antigen-binding ability of the anti-CD300c monoclonal antibodies produced in Example 1, binding ELISA was performed. Specifically, a CD300c antigen (11832-H08H, Sino Biological) or a CD300a antigen (12449-H08H, Sino Biological) in a coating buffer (0.1 M sodium carbonate, pH 9.0) was dispensed into an ELISA plate at a concentration of 8 μg/mL per well, followed by incubation at room temperature for 3 hours to allow the antigen to be bound to the plate. The unbound antigens were removed by washing three times using phosphate buffered saline-Tween 20 (PBST), and then 300 μL of PBST supplemented with 5% bovine serum albumin (BSA) was added to each well, followed by incubation at room temperature for 1 hour and then washing using PBST. Then, an anti-CD300c monoclonal antibody was diluted in quadruplicate and added thereto, followed by incubation for 1 hour at room temperature for antigen binding. After 1 hour, washing was performed three times using PBST to remove unbound anti-CD300c monoclonal antibody, and then 4 μg/mL of an antibody for detection (HRP conjugated anti-Fc IgG) was added, followed by incubation again at room temperature for 1 hour. […] Then, 2 N sulfuric acid solution was added to terminate the development reaction, and the absorbance was measured at 450 nm to identify the antibodies specifically binding to the CD300c antigen.", "data": [{"molecule": "B1", "values": [{"measurement": "EC50", "value": 49.7, "unit": "µg/mL"}]}]}
